How the values were obtained:
[1] = target: T1, MdEIL1 (labelled MdEIN3-HIS in the Fig. 7d figure text);MdHY5 (apple;apple, UniProt D5L144;L0MZN5 1-659;1-164, |); assay: EMSA; MdHY5 added to MdEIL1 enhances binding; LightShift Chemiluminescent EMSA kit (Thermo); buffer, salt, pH and temperature not stated; cold probe 25x, 50x, 100x; conditions: protein: recombinant;recombinant; tags: His (pET32a fusion);His (pET32a fusion); label: 3' biotin on both strands; blunt
T1 sequence 1: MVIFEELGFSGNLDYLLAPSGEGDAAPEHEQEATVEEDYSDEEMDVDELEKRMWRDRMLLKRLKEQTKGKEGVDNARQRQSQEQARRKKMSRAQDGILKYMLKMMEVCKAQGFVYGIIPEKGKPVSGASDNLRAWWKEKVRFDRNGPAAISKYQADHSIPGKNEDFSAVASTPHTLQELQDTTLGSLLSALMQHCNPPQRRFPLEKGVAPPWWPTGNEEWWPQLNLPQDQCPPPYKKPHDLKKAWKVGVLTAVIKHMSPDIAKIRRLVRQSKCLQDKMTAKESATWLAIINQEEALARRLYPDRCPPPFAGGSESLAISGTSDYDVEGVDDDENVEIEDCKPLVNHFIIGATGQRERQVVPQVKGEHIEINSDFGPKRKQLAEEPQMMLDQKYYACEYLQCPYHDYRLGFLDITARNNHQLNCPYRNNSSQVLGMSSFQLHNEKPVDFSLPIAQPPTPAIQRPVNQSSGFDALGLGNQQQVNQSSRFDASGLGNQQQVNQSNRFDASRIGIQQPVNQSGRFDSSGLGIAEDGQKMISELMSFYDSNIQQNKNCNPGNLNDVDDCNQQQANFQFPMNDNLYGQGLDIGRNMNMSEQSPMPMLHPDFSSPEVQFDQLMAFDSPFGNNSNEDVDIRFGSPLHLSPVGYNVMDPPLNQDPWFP
T1 sequence 2: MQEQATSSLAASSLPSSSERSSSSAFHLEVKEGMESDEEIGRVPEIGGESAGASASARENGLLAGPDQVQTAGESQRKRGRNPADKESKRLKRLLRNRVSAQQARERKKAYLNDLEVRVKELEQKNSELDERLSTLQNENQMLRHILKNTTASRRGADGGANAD

[2] = target: T2, MdEIL1 (labelled MdEIN3-HIS in the Fig. 7d figure text) (apple, UniProt D5L144 1-659); assay: EMSA; LightShift Chemiluminescent EMSA kit (Thermo); buffer, salt, pH and temperature not stated; cold probe 25x, 50x, 100x; conditions: protein: recombinant; tags: His (pET32a fusion); label: 3' biotin on both strands; blunt
T2 sequence: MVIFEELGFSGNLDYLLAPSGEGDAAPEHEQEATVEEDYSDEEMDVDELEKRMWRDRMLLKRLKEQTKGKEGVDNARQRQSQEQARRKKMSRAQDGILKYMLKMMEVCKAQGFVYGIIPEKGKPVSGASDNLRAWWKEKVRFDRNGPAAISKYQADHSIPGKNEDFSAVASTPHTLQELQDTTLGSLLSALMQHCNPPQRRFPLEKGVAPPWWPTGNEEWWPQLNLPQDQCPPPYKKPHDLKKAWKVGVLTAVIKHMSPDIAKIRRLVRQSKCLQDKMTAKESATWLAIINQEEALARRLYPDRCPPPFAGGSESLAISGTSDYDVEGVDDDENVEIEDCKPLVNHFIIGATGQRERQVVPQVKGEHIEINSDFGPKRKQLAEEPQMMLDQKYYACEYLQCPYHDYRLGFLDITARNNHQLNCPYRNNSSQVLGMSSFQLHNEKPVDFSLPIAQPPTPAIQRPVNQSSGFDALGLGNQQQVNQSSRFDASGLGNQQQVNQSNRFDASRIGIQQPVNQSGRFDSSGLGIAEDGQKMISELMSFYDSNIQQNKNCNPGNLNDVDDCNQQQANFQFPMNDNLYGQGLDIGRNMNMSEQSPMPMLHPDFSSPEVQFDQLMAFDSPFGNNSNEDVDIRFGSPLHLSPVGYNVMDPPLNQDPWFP

MdHY5 = target: T3, MdHY5 (apple, UniProt L0MZN5 1-164); assay: as above; conditions: protein: recombinant; tags: His (pET32a fusion); chain copies: 2; label: 3' biotin on both strands; blunt
T3 sequence: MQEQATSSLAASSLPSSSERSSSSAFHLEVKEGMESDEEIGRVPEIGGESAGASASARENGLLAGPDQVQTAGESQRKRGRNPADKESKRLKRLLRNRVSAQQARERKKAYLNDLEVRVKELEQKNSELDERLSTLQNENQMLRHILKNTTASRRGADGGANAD

[3] = target: T1, MdEIL1 (labelled MdEIN3-HIS in the Fig. …); assay: EMSA; MdHY5 with MdEIL1 enhances binding; LightShift Chemiluminescent EMSA kit (Thermo); buffer, salt, pH and temperature not stated; cold probe 25x, 50x, 100x; conditions: protein: recombinant;recombinant; tags: His (pET32a fusion);His (pET32a fusion); label: 3' biotin on both strands; blunt
[4] = target: T1, MdEIL1 (labelled MdEIN3-HIS in the Fig. …); assay: EMSA; MdEIL1 added to MdHY5 enhances binding; LightShift Chemiluminescent EMSA kit (Thermo); buffer, salt, pH and temperature not stated; cold probe 25x, 50x, 100x; conditions: protein: recombinant;recombinant; tags: His (pET32a fusion);His (pET32a fusion); label: 3' biotin on both strands; blunt

B1: MdERF17-TACAT3 hot probe (dsDNA)
DNA 1: GGTGAGGTTTGGGTTGAATTTACATAATGAGTCACTCATAGTAAA
DNA 2: TTTACTATGAGTGACTCATTATGTAAATTCAACCCAAACCTCACC
binding result [1]: binds | binding result [2]: binds

B2: MdERF17-G-box2 hot probe (dsDNA)
DNA 1: ATCATATACATATATATATGCACGTTGAAAACTTAGCTCCTTTGTT
DNA 2: AACAAAGGAGCTAAGTTTTCAACGTGCATATATATATGTATATGAT
binding result (MdHY5): no binding

B3: MdHY5-TACAT hot probe (dsDNA)
DNA 1: GCTTCCCCGTAACCAAGAAATACATGCATTTTCCGTCCAGCACAC
DNA 2: GTGTGCTGGACGGAAAATGCATGTATTTCTTGGTTACGGGGAAGC
binding result [2]: binds | binding result [3]: binds

B4: MdERF17-G-box3 hot probe (dsDNA)
DNA 1: CCGTATGAGGACAAATAACACACGTGCTTCGAAACCCGTCTCTCTG
DNA 2: CAGAGAGACGGGTTTCGAAGCACGTGTGTTATTTGTCCTCATACGG
binding result [4]: binds | binding result (MdHY5): binds

B5: MdERF17-G-box1 hot probe (dsDNA)
DNA 1: GTGTGTTTTATTGCATCATTCACGTGTCATCTTTGCAAAAAATTAG
DNA 2: CTAATTTTTTGCAAAGATGACACGTGAATGATGCAATAAAACACAC
binding result (MdHY5): no binding

From article PMC11997652, “Transcription factors MdEIL1 and MdHY5 integrate ethylene and light signaling to promote chlorophyll degradation in mature apple peels”
